Laboratory results from publication PMC13227277, “Targeting CIRP and IL-6R-mediated microglial inflammation to improve outcomes in intracerebral hemorrhage” (Journal of Advanced Research, 2025).

Experiments:
IL-6Rα = details: macrophages; cited from earlier work
From the text: Previous studies have shown that MD2 binds to a specific 15-amino acid segment of CIRP with high affinity, promoting inflammation. To target this interaction, we designed the peptides TCC and TC using macromolecular docking techniques, with SPR confirming that TCC reduced the binding affinity of CIRP to IL-6Rα.

IL-6R = test: Co-immunoprecipitation of CIRP and IL-6R; type: binding; details: Co-IP, n = 3
Experimental: The beads were washed twice with lysis buffer to remove unbound proteins. Bound proteins were eluted by boiling the beads in sample buffer at 95°C for 3 min and subjected to Western blot analysis.

microglia = test: Microglial phagocytosis of CFSE-labeled RBCs; type: cell-based, mouse; details: CFSE-labeled erythrocytes 10:1, 4 h; TCC pretreatment then CIRP; n = 6
From the text: Primary cortical neurons were isolated from embryonic day 16–18 (E16–E18) C57BL/6 mouse embryos as previously described, and cultured in Neurobasal medium supplemented with B27 and GlutaMAX (Gibco).Primary microglial cells were isolated from the cortices of neonatal (day 1) C57BL/6J mice. After disinfection with 75 % ethanol, the skin and skull were removed, and the brains were placed in ice-cold HBSS. The meninges were peeled off, the cortex was collected, and the hippocampus was discarded. Tissues were digested with 0.25 % trypsin at 37 °C for 12 min, centrifuged at 1200 rpm for 5 min, and resuspended in complete medium. The suspension was transferred to a T75 flask with 15 mL of complete medium. After 14 days, microglial cells were harvested by shaking the flask at 270–280 rpm for 30 min, and the supernatant was collected. […]
The functional characteristics of microglial cells encompass not only the release of inflammatory cytokines but also their phagocytic activity. […] RBCs were labeled with either 0.5 μM or 5 μM CFSE, and immunofluorescence analysis determined that 5 μM CFSE was the optimal concentration for labeling (Fig. 7G). […]
RBCs were isolated via density gradient centrifugation and labeled with CFSE before being stereotactically injected into the right striatum. […] Cell viability was assessed using a Fixable Viability Dye, and flow cytometric analysis was subsequently performed. […]

[1] = test system: IL-6R-overexpressing HEK-293 T cells; test: IL-6R mRNA/protein expression in IL-6R-overexpressing HEK-293 T cells; type: cell-based, human; details: CIRP 1 μg/mL for 24 h
Experimental: The overexpression plasmid for IL-6R was constructed by GenScript Biotech using a pcDNA3.1(+)-3xFLAG-P2A-EGFP vector with a broad-spectrum promoter, non-fusion EGFP fluorescence, and Neo (G418) resistance. The final construct was pcDNA3.1(+)-IL6r-3xFLAG-P2A-EGFP, and a control plasmid (pcDNA3.1(+)-3xFLAG-P2A-EGFP) was also generated.
HEK 293 T cells were cultured in six-well plates to 70–80 % confluence. Cells were divided into control and test groups. For transfection, solution A (plasmid diluted in Opti-MEM) and solution B (Lipofectamine 2000, Life Technologies, USA, diluted in Opti-MEM) were mixed at a 1:2 plasmid-to-lipofectamine ratio. After 6 h, the medium was replaced with DMEM, and GFP fluorescence was observed 24–48 h post-transfection to assess efficiency. Cells were divided into PBS, IL-6R, and CIRP (1 μg/mL for 24 h) groups for further analysis.
RNA was extracted using TRIzol reagent (Invitrogen, 210901). RNA was reverse transcribed into cDNA using Novagen's R323-01 100RXN. qRT-PCR was performed to determine the mRNA levels of Nos2, Tnf, Rela, Mcr1, Arg1, Cirbp, […] and Il6. […]
Brain tissue adjacent to the hemorrhagic striatum was homogenized in lysis buffer with protease inhibitors. […] The supernatant was collected for protein quantification using the BCA method. […]

B1: recombinant human CIRP (cold-inducible RNA-binding protein) (natural protein, UniProt Q14011 1-172, looked up)
chain: MASDEGKLFVGGLSFDTNEQSLEQVFSKYGQISEVVVVKDRETQRSRGFGFVTFENIDDAKDAMMAMNGKSVDGRQIRVDQAGKSSDNRSRGYRGGSAGGRGFFRGGRGRGRGFSRGGGDRGYGGNRFESRSGGYGGSRDYYSSRSQSGGYSDRSSGGSYRDSYDSYATHNE
notes: UniProtKB Q14011 is printed for the docking; also called rhCIRP; human CIRBP; source: recombinant
IL-6Rα as receptor for CIRP (IL-6Rα): high-affinity receptor for CIRP in macrophages
interaction between CIRP and IL-6R (IL-6R): confirmed a interaction between CIRP and IL-6R
microglial phagocytosis of RBCs (microglia): significantly reduced in the CIRP group compared to the PBS group
Il6 mRNA expression ([1]; qRT-PCR n = 3–6): did not show a significant change between groups
Il6ra mRNA and protein expression ([1]; qRT-PCR n = 3–6, western blot n = 9): significant upregulation of Il6ra mRNA and protein expression
